Experimental data from the supplement of paper PMC9170038.

Test system: MS2 coat protein
Experiment: apparent KD of MS2 coat protein; designed switch direction (-1 OFF switch, 1 ON switch): -1; higher = weaker reporter binding
Summary of the method: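 For each design, the apparent KD is the median over clusters of curves fitted to normalised cluster fluorescence. Clusters held RNA switches with common flanks, transcribed on Illumina chips by stalled E. coli RNA polymerase. These were titrated with SNAP-549-labelled MS2 coat protein, doubling from 0.7 or 1.5 nM to 3 µM, without input, with 200 uM small-molecule ligand, or with an oligonucleotide input.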

[1] = Eterna round: R95, input ligand: FMN 200 uM
[2] = Eterna round: R95, input ligand: microRNA oligo, concentration not stated
[3] = Eterna round: R95, input ligand: none

Sequence | apparent KD of MS2 coat protein [1] [nM] | apparent KD of MS2 coat protein [2] [nM] | apparent KD of MS2 coat protein [3] [nM] | apparent KD of MS2 coat protein (input ligand: FMN 200 uM) [nM] | apparent KD of MS2 coat protein (input ligand: none) [nM] | apparent KD of MS2 coat protein (input ligand: microRNA oligo, concentration not stated) [nM]
AUUUAUGUUGAGGAUAUGCGAAUAAGUAUAGUUGCAGAAGGCGACACAUGAGGAUCACCCAUGUUCAUGGACCC [LRO-Ex6-02] (puzzle: Exclusion 6) | 181 | 81.5 | 127 |  |  | 
GCAAGUUUUUUGUUUUUUAACAUGAGGAUCACCCAUGUGCGGUUAUAGUGUGUGUGAUUAGGAUCUUGUGGUCUUAG [JR_SV3TOV1_Sub102] (puzzle: Sensor v3, turn-off variant 1) | 67.8 | 123 | 98.9 |  |  | 
GUACUGACAGGAUAUACAUGAGGAUCACCCAUGUGCCCUUAAAGAUGCAAAGCAUCUAGUAGAAGGGUCUGUAC [Omei Ex3 Model Bachelor's Dilema v23] (Eterna round: R97, puzzle: Exclusion 3) |  |  |  | 66.1 | 33.4 | 
AAGUAGUGUGUGAGGAUAUUGGUGGAAUGACACAUUAAGAAGGCACAUGAGGAUCACCCAUGUGGGUAAACACG [Brourd's EX4 #22] (Eterna round: R97, puzzle: Brourd's mod of Exclusion 4) |  |  |  | 90 | 33.1 | 
CUGAUGUCAGGAUAUCAGAAAAGGUGCAAGGACGCACCAAAUGAGAAGGGACAUGAGGAUCACCCAUGUAAAAC [Maqucema] (puzzle: Exclusion 4) |  | 25.4 |  |  |  | 
UUAAAUCAUGUAGGAUAUGCGUGGCGAAGCUAUGCAGAAGGACAUGAGGAUCACCCAUGUUCUUCCGUCUGCGUACAGACGGAA [Mat - Exclusion NG 1 - Mod of JL - D38] (Eterna round: R96, puzzle: Exclusion NG 1) |  |  |  | 284 | 40.8 | 33.7
GAAAACGCAGAGGAUAUUUCAGAUCAAAGCUGCAAAGAAGGCUGCACAUGAGGAUCACCCAUGUGGUCUUCAAG [Mat - Exclusion 6 - JL Mod - D9] (Eterna round: R97, puzzle: Exclusion 6) |  |  |  | 152 | 29 | 
CCUCUACAUGAGGAUCACCCAUGUGAGGAUAUCCUGCGAGGAUCAAAAGAUCCUCGUGGGAGAAGGCAUAUGAA [Omei Ex1 A1] (Eterna round: R97, puzzle: Exclusion 1) |  |  |  | 34.3 | 22.9 | 
AGUCCGUCAGGAUAUGCAAUUGUGGACAUGAGGAUCACCCAUGUAACGUGGGCUUGGUUUGUAGAAGGGACGUGCA [EX5 #91] (Eterna round: R97, puzzle: Exclusion 5) |  |  |  | 351 | 442 | 
CUGAGGUAGCGGUCCUAUGACAUGAGGAUCACCCAUGUACCUCGCUACGAGCUUUUUGCUCGUCUUAUAAUUCUCGG [JL Atriat mod 2] (puzzle: Sensor v3, turn-off variant 1) | 573 | 141 | 643 |  |  | 
AUAAUGUAAGGAUAUCAGUCGACUAGCCUCGGCUAGUCGACUGAGAAGGUACAUGAGGAUCACCCAUGUAGAUC [E4/19-A2] (Eterna round: R97, puzzle: Exclusion 4) |  |  |  | 352 | 47.8 | 
GAAAAGGUAGGAUAUACGAUAAGAAAGGGUAGAGAAUAAACACAUGAGGAUCACCCAUGUAGAAGGACCAAAAG [salish99_ex2_r3_101] (puzzle: Exclusion 2) | 148 | 30 | 26 |  |  | 
AAGAAACAUGAGGAUCACCCAUGUGAGGAUAUGAUAAAGAAAAGAAAAGAAAGAAGAGUCAGAAGGCACAAAGG [salish99-ex1_r3_037] (puzzle: Exclusion 1) | 71.6 | 35.8 | 47.4 |  |  | 
UUUUGGUAAGGAUAUGAAUCGAUCUCGGAAACGAGAUCGAUUCAGAAGGUACAUGAGGAUCACCCAUGUUGAUU [Mod of Brourd 7 - Jieux - Exclusion 4] (Eterna round: R97, puzzle: Exclusion 4) |  |  |  | 119 | 26 | 
UCGGGAUGAGGAUAUACAUAGAAAUAGAUUCAUGUAAAACUACAUGAGGAUCACCCAUGUAGAAGGCAUUCCGU [Mat - Exclusion 2 - JL Mod - D58] (Eterna round: R97, puzzle: Exclusion 2) |  |  |  | 110 | 24.2 | 
GUAGAGUCAGGAUAUACAAGAUCGAAAGAUCGGCGGUCCAUACAUGAGGAUCACCCAUGUAGAAGGGACUCUAC [Eli x2 4.005] (Eterna round: R97, puzzle: Exclusion 2) |  |  |  | 619 | 30.2 | 
ACCUCACAUGAGGAUCACCCAUGUCAGGAUAUUCAAACAGGCGGAACUCCGCCUUCUCGAAGAAGGGACAUUAA [Ontebileza] (puzzle: Exclusion 1) |  | 16.6 |  |  |  | 
